Experiments:
T-cell clonotypes = test: FEST assay (functional expansion of specific T cells, TCR Vβ CDR3 sequencing); type: cell-based, human; settings: pool of TSAs^hi, healthy donor
Method: For FEST assays, T cells were cultured as previously described, with minor modifications (Danilova et al., 2018). Briefly, on day 0, thawed PBMCs from a healthy donor (BioIVT) were T-cell enriched using the Human Pan T-cell isolation kit (Miltenyi). T cells were resuspended at 2 × 10^6/mL in AIM V media supplemented with 50 µg/mL gentamicin (ThermoFisher Scientific) and 1% Hepes. The T cell-negative fraction was irradiated at 30 Gy, washed and resuspended at 2.0 × 10^6/mL in AIM V media supplemented with 50 µg/mL gentamicin and 1% Hepes. One ml per well of both T cells and irradiated T cell-depleted cells were added to a 12-well plate, along with either one of the 3 TSA^hi pools (5 TSAs^hi per pool, 1 µM final concentration for each TSA) or without peptide. Cells were cultured for 10 days at 37° C., 5% CO2. On day 3 and 7, half the culture media was replaced with fresh culture media containing 100 IU/mL IL-2, 50 ng/mL IL-7, and 50 ng/mL IL-15 (day 3) and 200 IU/mL IL-2, 50 ng/mL IL-7, and 50 ng/mL IL-15 (day 7). On day 10, cells were harvested and CD8^+ cells were further isolated using the Human CD8^+ T Cell Isolation Kit (Miltenyi). As a negative control, CD8^+ T cells were also isolated from freshly thawed uncultured PBMCs of the same healthy donor. DNA was extracted from CD8^+ T cells using a Qiagen DNA blood mini kit (Qiagen). […]

[1] = biological target: Pool 2 of TSAs^hi: … … … … …; test: cell-based or functional assay
[2] = biological target: Pool 1 of TSAs^hi: … … … IASPIALL …; test: cell-based or functional assay
[3] = biological target: Pool 3 of TSAs^hi: LRSQILSY … … … …; test: cell-based or functional assay

3 (GARQQIHSW; listed as Homo sapiens) [compound 3]
Significantly expanded clonotype (SEQ ID NO:) (T-cell clonotypes): CARSFGGFF (213)

CASSEYRALNTEAFF (TCR)
FEST assay: clonotype expansion, odds ratio (FDR 4.67 E-30) [1]: 59.8

CASSESGTGGQPQHF (TCR)
FEST assay: clonotype expansion, odds ratio (FDR 1.14 E-08) [1]: 3.46

CASSRTGENTEAFF (TCR)
FEST assay: clonotype expansion, odds ratio (FDR 0.003813) [1]: 3.35

CASSSTDRQHYGYTF (TCR)
FEST assay: clonotype expansion, odds ratio (FDR 0.007052) [1]: 3.76

CASSDRTGGSSNEKLFF (TCR)
FEST assay: clonotype expansion, odds ratio (FDR 0.008031) [1]: 8.21

CATSRSGDSNQPQHF (TCR)
FEST assay: clonotype expansion, odds ratio (FDR 0.008031) [1]: 8.21

CASSYVLNTEAFF (TCR)
FEST assay: clonotype expansion, odds ratio (FDR 0.010284) [1]: 10.8

CASTVVAGNSSPLHF (TCR)
FEST assay: clonotype expansion, odds ratio (FDR 1.2 E-07) [2]: 18.8

CASSADSSLGGYTF (TCR)
FEST assay: clonotype expansion, odds ratio (FDR 1.13 E-10) [3]: 45.4

CASSVDAGGNYEQYF (TCR)
FEST assay: clonotype expansion, odds ratio (FDR 0.000665) [2]: 12.3

Reference: US20230287070A1, “NOVEL TUMOR-SPECIFIC ANTIGENS FOR ACUTE MYELOID LEUKEMIA (AML) AND USES THEREOF” (UNIVERSITE DE MONTREAL, priority 2020, published 2023)
